Earlier results on three substances are cited in PMC10941800.

A word on the Kd: it is the equilibrium constant for the complex coming apart.

Holding throughout (conditions): cited from earlier work
Data set [1] has as its target measles virus hemagglutinin (Measles morbillivirus) (UniProt P08362).
Data set [2] has the same target. The source holds these as a separate data set.
The target is the same in data set [3]. The source holds these as a separate data set.

Like-named read-outs stand apart in the source and are kept apart here.

UniProt P08362, sequence (P08362 59-617): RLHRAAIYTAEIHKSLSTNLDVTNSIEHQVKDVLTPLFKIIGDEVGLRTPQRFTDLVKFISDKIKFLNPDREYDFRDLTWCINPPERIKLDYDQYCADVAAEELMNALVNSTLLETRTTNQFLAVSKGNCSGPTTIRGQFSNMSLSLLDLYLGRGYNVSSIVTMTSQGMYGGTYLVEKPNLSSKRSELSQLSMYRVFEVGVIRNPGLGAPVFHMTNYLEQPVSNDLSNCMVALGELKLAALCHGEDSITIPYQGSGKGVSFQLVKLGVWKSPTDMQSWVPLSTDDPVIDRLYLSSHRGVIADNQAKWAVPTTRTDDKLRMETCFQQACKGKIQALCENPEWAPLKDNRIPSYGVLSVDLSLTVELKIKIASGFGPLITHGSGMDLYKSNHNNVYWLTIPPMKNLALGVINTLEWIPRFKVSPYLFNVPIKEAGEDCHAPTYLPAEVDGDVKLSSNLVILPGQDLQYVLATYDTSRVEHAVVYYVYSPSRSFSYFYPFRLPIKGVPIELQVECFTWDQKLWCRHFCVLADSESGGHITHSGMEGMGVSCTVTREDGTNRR

Nectin-4 (from UniProt Q96NY8): in data set [1], the Kd is 670 nM.

As to SLAM (from UniProt Q13291), the dissociation constant Kd in data set [2] is 170 nM.

Take CD46 (from UniProt P15529): the Kd in data set [3] is 200 nM.
